In publication PMC10213376 (Redox Biology, 2023):

Target: the molecule itself
Test: crystal structure

B1: Human catalase (CAT) (enzyme)
chain: MADSRDPASDQMQHWKEQRAAQKADVLTTGAGNPVGDKLNVITVGPRGPLLVQDVVFTDEMAHFDRERIPERVVHAKGAGAFGYFEVTHDITKYSKAKVFEHIGKKTPIAVRFSTVAGESGSADTVRDPRGFAVKFYTEDGNWDLVGNNTPIFFIRDPILFPSFIHSQKRNPQTHLKDPDMVWDFWSLRPESLHQVSFLFSDRGIPDGHRHMNGYGSHTFKLVNANGEAVYCKFHYKTDQGIKNLSVEDAARLSQEDPDYGIRDLFNAIATGKYPSWTFYIQVMTFNQAETFPFNPFDLTKVWPHKDYPLIPVGKLVLNRNPVNYFAEVEQIAFDPSNMPPGIEASPDKMLQGRLFAYPDTHRHRLGPNYLHIPVNCPYRARVANYQRDGPMCMQDNQGGAPNYYPNSFGAPEQQPSALEHSIQYSGEVRRFNTANDDNVTQVRAFYVNVLNEEQRKRLCENIAGHLKDAQIFIQKKAVKNFTEVHPDYGSHIQALLDKYNAEKPKNAIHTFVQSGSHLAAREKANL
stoichiometry N: 4
